# Laboratory results reported in article PMC3737472.
# Columns and labels:
# [1] = target: HSV-1 glycoprotein B ectodomain lacking the membrane proximal region, gB730t (residues 31-730) (herpes simplex virus type 1 (HSV-1)) (UniProt P06437); assay: SEC; Superdex200 column run in 2x PBS; gB773t also run in 2x PBS/0.5% octyl-glucoside after overnight incubation with the detergent
# [2] = target: HSV-1 glycoprotein B ectodomain lacking the membrane proximal region, gB730t (residues 31-730) (herpes simplex virus type 1 (HSV-1)) (UniProt P06437); assay: negative stain EM; SEC fractions 19-22 (run without detergent) on carbon-coated grids at 2-20 ug/ml; 0.75% uranyl formate pH 5.5 or methylamine vanadate pH 8.0
# [3] = target: HSV-1 glycoprotein B ectodomain lacking the membrane proximal region, gB730t (residues 31-730) (herpes simplex virus type 1 (HSV-1)) (UniProt P06437); assay: cryo-EM projection images; SEC fraction 22 (run without detergent) embedded in vitreous ice on holey carbon grids
# [4] = target: HSV-1 glycoprotein B ectodomain lacking the membrane proximal region, gB730t (residues 31-730) (herpes simplex virus type 1 (HSV-1)) (UniProt P06437); assay: negative stain EM; SEC fractions 19-22 (run without detergent) on carbon-coated grids at 2-20 ug/ml; 0.75% uranyl formate pH 5.5 or methylamine vanadate pH 8.0; remark: listed apart in the source
# [5] = target: HSV-1 glycoprotein B ectodomain lacking the membrane proximal region, gB730t (residues 31-730) (herpes simplex virus type 1 (HSV-1)) (UniProt P06437); assay: cryo-EM structure; cryo-ET subtomogram averaging of gB730t trimers bound to liposomes (phosphatidylcholine:cholesterol 1.7:1), pH 5.5, protein ca. 1 mg/ml, 1 hr at 37 C; 786 particles, 2.7 nm
# [6] = target: HSV-1 glycoprotein B full-length ectodomain including the membrane proximal region, gB773t (residues 31-773) (herpes simplex virus type 1 (HSV-1)) (UniProt P06437); assay: negative stain EM; SEC fractions 19-22 (run without detergent) on carbon-coated grids at 2-20 ug/ml; 0.75% uranyl formate pH 5.5 or methylamine vanadate pH 8.0
# [7] = target: HSV-1 glycoprotein B full-length ectodomain including the membrane proximal region, gB773t (residues 31-773) (herpes simplex virus type 1 (HSV-1)) (UniProt P06437); assay: cryo-EM projection images; SEC fraction 22 (run without detergent) embedded in vitreous ice on holey carbon grids
Substance,stoichiometry N [1],stoichiometry N [2],stoichiometry N [3],stoichiometry N [4],stoichiometry N [5],stoichiometry N [6],stoichiometry N [7]
"HSV-1 glycoprotein B ectodomain lacking the membrane proximal region, gB730t (residues 31-730) (from UniProt P06437 31-730) (domain or fragment)",3,3,3,6,3,,
"HSV-1 glycoprotein B full-length ectodomain including the membrane proximal region, gB773t (residues 31-773) (from UniProt P06437 31-773) (domain or fragment)",,,,,,3,3
